Data published in article PMC4043723.

Columns and labels:
Assay in all cases: voltammetric sandwich aptasensor
horseradish peroxidase = horseradish peroxidase (horseradish, UniProt P00433 31-338)
thrombin = thrombin (UniProt P00734;P00734 328-363;364-622)
[1] = target: prostate-specific antigen (PSA) (UniProt P07288 25-261)

Measured: binding result

horseradish peroxidase, sequence (P00433 31-338): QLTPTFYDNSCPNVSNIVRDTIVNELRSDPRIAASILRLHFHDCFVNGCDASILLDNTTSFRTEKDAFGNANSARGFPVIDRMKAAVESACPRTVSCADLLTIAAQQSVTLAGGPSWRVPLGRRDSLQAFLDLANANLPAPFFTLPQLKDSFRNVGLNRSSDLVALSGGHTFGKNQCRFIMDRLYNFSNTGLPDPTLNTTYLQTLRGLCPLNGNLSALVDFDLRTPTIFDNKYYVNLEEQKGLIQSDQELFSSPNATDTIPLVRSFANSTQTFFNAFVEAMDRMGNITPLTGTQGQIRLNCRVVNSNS
prostate-specific antigen (PSA), sequence (P07288 25-261): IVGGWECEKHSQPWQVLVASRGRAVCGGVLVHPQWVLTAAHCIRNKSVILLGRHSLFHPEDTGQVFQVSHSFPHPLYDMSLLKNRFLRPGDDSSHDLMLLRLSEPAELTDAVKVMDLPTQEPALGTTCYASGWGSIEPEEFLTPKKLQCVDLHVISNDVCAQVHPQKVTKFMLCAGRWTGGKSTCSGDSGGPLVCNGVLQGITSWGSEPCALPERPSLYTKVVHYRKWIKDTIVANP

GATTGAAAGGTCTGTTTTTGGGGTTGGTTTGGGTCAATA (ssDNA, 5'-SH-(CH2)6) [anti-rHuEPO aptamer (39-base)]
no binding: all assays above
